These results are taken from the supplement of paper PMC5998384.

For series [1], the system named is HeLa Kyoto. Briefly: melting temperature (median over replicates), in situ; higher = more thermally stable.
For series [2], the system named is HeLa Kyoto. Briefly: solubility change mitosis vs G1/S (difference of NP-40 vs SDS log2 ratios) (log2 ratio difference); higher = more soluble in mitosis.
The test system of series [3] is HeLa Kyoto. Briefly: thermal stability score vs G1/S (z-score of summed log2 fold changes over temperatures); higher = more thermally stable than in G1/S.
Series [4] deals with HeLa Kyoto. Briefly: solubility in G1/S (NP-40 vs SDS abundance) (log2 ratio); higher = more soluble. The following applies: cell cycle stage: G1/S.
Setting [5] is: cell cycle stage: early G1 (4.5 h after nocodazole release).
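For melting temperature (median over replicates), in situ in this document: HeLa Kyoto cells synchronized by double thymidine or nocodazole block, proteins quantified by TMT10plex mass spectrometry, three independent biological replicates.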
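For solubility change mitosis vs G1/S (difference of NP-40 vs SDS log2 ratios) in this document: synchronized HeLa Kyoto cells (double thymidine block for G1/S, nocodazole release for mitosis), protein amounts in NP-40 versus SDS lysates quantified by mass spectrometry, three biological replicates.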
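For solubility in G1/S (NP-40 vs SDS abundance) in this document: HeLa Kyoto cells arrested at G1/S by double thymidine block, proteins quantified by TMT10plex mass spectrometry in mild NP-40 versus SDS extracts, three biological replicates.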
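For thermal stability score vs G1/S (z-score of summed log2 fold changes over temperatures) in this document: synchronized HeLa Kyoto cells, proteins quantified by TMT10plex mass spectrometry, three biological replicates, mitosis taken 0.5 h after nocodazole release, G1/S directly after double thymidine block.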

Turning to “MDSEAFQSARDFLDMNFQSLAMKHMDLKQMELDTAAAKVDELTKQLESLWSDSPAPPGPQAGPPSRPPRYSSSSIPEPFGSRGSPRKAATDGADTPFGRSESAPTLHPYSPLSPKGRPSSPRTPLYLQPDAYGSLDRATSPRPRAFDGAGSSLGRAPSPRPGPGPLRQQGPPTPFDFLGRAGSPRGSPLAEGPQAFFPERGPSPRPPATAYDAPASAFGSSLLGSGGSAFAPPLRAQDDLTLRRRPPKAWNESDLDVAYEKKPSQTASYERLDVFARPASPSLQLLPWRESSLDGLGGTGKDNLTSATLPRNYKVSPLASDRRSDAGSYRRSLGSAGPSGTLPRSWQPVSRIPMPPSSPQPRGAPRQRPIPLSMIFKLQNAFWEHGASRAMLPGSPLFTRAPPPKLQPQPQPQPQPQSQPQPQLPPQPQTQPQTPTPAPQHPQQTWPPVNEGPPKPPTELEPEPEIEGLLTPVLEAGDVDEGPVARPLSPTRLQPALPPEAQSVPELEEVARVLAEIPRPLKRRGSMEQAPAVALPPTHKKQYQQIISRLFHRHGGPGPGGPEPELSPITEGSEARAGPPAPAPPAPIPPPAPSQSSPPEQPQSMEMRSVLRKAGSPRKARRARLNPLVLLLDAALTGELEVVQQAVKEMNDPSQPNEEGITALHNAICGANYSIVDFLITAGANVNSPDSHGWTPLHCAASCNDTVICMALVQHGAAIFATTLSDGATAFEKCDPYREGYADCATYLADVEQSMGLMNSGAVYALWDYSAEFGDELSFREGESVTVLRRDGPEETDWWWAALHGQEGYVPRNYFGLFPRVKPQRSKV [PPP1R13L]”, the melting temperature in the series on HeLa Kyoto [1] (cell cycle stage: G1/S) was 51.2 °C; in the series on HeLa Kyoto [1] (cell cycle stage: mitosis) it was 51.5 °C. Moreover, the “solubility change mitosis (log2)” value with HeLa Kyoto [2] worked out at 0.0483. In addition, the thermal stability score is -0.761 in the series on HeLa Kyoto [3] (setting [5]) and 0.0817 in the series on HeLa Kyoto [3] (cell cycle stage: mitosis). In addition, the “solubility in G1/S (log2)” value with HeLa Kyoto [4] amounted to 0.09.
As to “MDSRVSELFGGCCRPGGGPAVGGTLKARGAGSSSGCGGPKGKKKNGRNRGGKANNPPYLPPEAEDGNIEYKLKLVNPSQYRFEHLVTQMKWRLQEGRGEAVYQIGVEDNGLLVGLAEEEMRASLKTLHRMAEKVGADITVLREREVDYDSDMPRKITEVLVRKVPDNQQFLDLRVAVLGNVDSGKSTLLGVLTQGELDNGRGRARLNLFRHLHEIQSGRTSSISFEILGFNSKGEVVNYSDSRTAEEICESSSKMITFIDLAGHHKYLHTTIFGLTSYCPDCALLLVSANTGIAGTTREHLGLALALKVPFFIVVSKIDLCAKTTVERTVRQLERVLKQPGCHKVPMLVTSEDDAVTAAQQFAQSPNVTPIFTLSSVSGESLDLLKVFLNILPPLTNSKEQEELMQQLTEFQVDEIYTVPEVGTVVGGTLSSGICREGDQLVVGPTDDGCFLELRVCSIQRNRSACRVLRAGQAATLALGDFDRALLRKGMVMVSPEMNPTICSVFEAEIVLLFHATTFRRGFQVTVHVGNVRQTAVVEKIHAKDKLRTGEKAVVRFRFLKHPEYLKVGAKLLFREGVTKGIGHVTDVQAITAGEAQANMGF [GTPBP2]”, the melting temperature in the series with HeLa Kyoto [1] (cell cycle stage: G1/S) stood at 49.9 °C; in the series on HeLa Kyoto [1] (cell cycle stage: mitosis), 50.1 °C. In addition, in the series with HeLa Kyoto [2], the “solubility change mitosis (log2)” value stood at 0.127. The results for the thermal stability score with HeLa Kyoto [3] (setting [5]) and in the series on HeLa Kyoto [3] (cell cycle stage: mitosis) were 0.507 and 0.439, respectively. For the same sequence, in the series with HeLa Kyoto [4], the “solubility in G1/S (log2)” value is -0.711.
For the sequence “MDSTLTASEIRQRFIDFFKRNEHTYVHSSATIPLDDPTLLFANAGMNQFKPIFLNTIDPSHPMAKLSRAANTQKCIRAGGKHNDLDDVGKDVYHHTFFEMLGSWSFGDYFKELACKMALELLTQEFGIPIERLYVTYFGGDEAAGLEADLECKQIWQNLGLDDTKILPGNMKDNFWEMGDTGPCGPCSEIHYDRIGGRDAAHLVNQDDPNVLEIWNLVFIQYNREADGILKPLPKKSIDTGMGLERLVSVLQNKMSNYDTDLFVPYFEAIQKGTGARPYTGKVGAEDADGIDMAYRVLADHARTITVALADGGRPDNTGRGYVLRRILRRAVRYAHEKLNASRGFFATLVDVVVQSLGDAFPELKKDPDMVKDIINEEEVQFLKTLSRGRRILDRKIQSLGDSKTIPGDTAWLLYDTYGFPVDLTGLIAEEKGLVVDMDGFEEERKLAQLKSQGKGAGGEDLIMLDIYAIEELRARGLEVTDDSPKYNYHLDSSGSYVFENTVATVMALRREKMFVEEVSTGQECGVVLDKTCFYAEQGGQIYDEGYLVKVDDSSEDKTEFTVKNAQVRGGYVLHIGTIYGDLKVGDQVWLFIDEPRRRPIMSNHTATHILNFALRSVLGEADQKGSLVAPDRLRFDFTAKGAMSTQQIKKAEEIANEMIEAAKAVYTQDCPLAAAKAIQGLRAVFDETYPDPVRVVSIGVPVSELLDDPSGPAGSLTSVEFCGGTHLRNSSHAGAFVIVTEEAIAKGIRRIVAVTGAEAQKALRKAESLKKCLSVMEAKVKAQTAPNKDVQREIADLGEALATAVIPQWQKDELRETLKSLKKVMDDLDRASKADVQKRVLEKTKQFIDSNPNQPLVILEMESGASAKALNEALKLFKMHSPQTSAMLFTVDNEAGKITCLCQVPQNAANRGLKASEWVQQVSGLMDGKGGGKDVSAQATGKNVGCLQEALQLATSFAQLRLGDVKN [AARS]”, the melting temperature turned out to be 51.6 °C with HeLa Kyoto [1] (cell cycle stage: G1/S) and 52.1 °C with HeLa Kyoto [1] (cell cycle stage: mitosis). In addition, the “solubility change mitosis (log2)” value with HeLa Kyoto [2] is -0.1. In addition, the thermal stability score with HeLa Kyoto [3] (setting [5]) is 2.25; in the series on HeLa Kyoto [3] (cell cycle stage: mitosis), 2.81. For the same sequence, in the series on HeLa Kyoto [4], the “solubility in G1/S (log2)” value came out at 0.201.
With “MDTKEEKKERKQSYFARLKKKKQAKQNAETASAVATRTHTGKEDNNTVVLEPDKCNIAVEEEYMTDEKKKRKSNQLKEIRRTELKRYYSIDDNQNKTHDKKEKKMVVQKPHGTMEYTAGNQDTLNSIALKFNITPNKLVELNKLFTHTIVPGQVLFVPDANSPSSTLRLSSSSPGATVSPSSSDAEYDKLPDADLARKALKPIERVLSSTSEEDEPGVVKFLKMNCRYFTDGKGVVGGVMIVTPNNIMFDPHKSDPLVIENGCEEYGLICPMEEVVSIALYNDISHMKIKDALPSDLPQDLCPLYRPGEWEDLASEKDINPFSKFKSINKEKRQQNGEKIMTSDSRPIVPLEKSTGHTPTKPSGSSVSEKLKKLDSSRETSHGSPTVTKLSKEPSDTSSAFESTAKENFLGEDDDFVDLEELSSQTGGGMHKKDTLKECLSLDPEERKKAESQINNSAVEMQVQSALAFLGTENDVELKGALDLETCEKQDIMPEVDKQSGSPESRVENTLNIHEDLDKVKLIEYYLTKNKEGPQVSENLQKTELSDGKSIEPGGIDITLSSSLSQAGDPITEGNKEPDKTWVKKGEPLPVKLNSSTEANVIKEALDSSLESTLDNSCQGAQMDNKSEVQLWLLKRIQVPIEDILPSKEEKSKTPPMFLCIKVGKPMRKSFATHTAAMVQQYGKRRKQPEYWFAVPRERVDHLYTFFVQWSPDVYGKDAKEQGFVVVEKEELNMIDNFFSEPTTKSWEIITVEEAKRRKSTCSYYEDEDEEVLPVLRPHSALLENMHIEQLARRLPARVQGYPWRLAYSTLEHGTSLKTLYRKSASLDSPVLLVIKDMDNQIFGAYATHPFKFSDHYYGTGETFLYTFSPHFKVFKWSGENSYFINGDISSLELGGGGGRFGLWLDADLYHGRSNSCSTFNNDILSKKEDFIVQDLEVWAFD [NCOA7]”, the melting temperature with HeLa Kyoto [1] (cell cycle stage: G1/S) was found to be 51 °C; in the series on HeLa Kyoto [1] (cell cycle stage: mitosis) it was 50.9 °C. In the series on HeLa Kyoto [2], the “solubility change mitosis (log2)” value is -0.15. The thermal stability score is -0.286 in the series on HeLa Kyoto [3] (setting [5]) and -0.429 with HeLa Kyoto [3] (cell cycle stage: mitosis). Moreover, the “solubility in G1/S (log2)” value with HeLa Kyoto [4] amounted to 0.0391.
On to “MDTPLRRSRRLGGLRPESPESLTSVSRTRRALVEFESNPEETREPGSPPSVQRAGLGSPERPPKTSPGSPRLQQGAGLESPQGQPEPGAASPQRQQDLHLESPQRQPEYSPESPRCQPKPSEEAPKCSQDQGVLASELAQNKEELTPGAPQHQLPPVPGSPEPYPGQQAPGPEPSQPLLELTPRAPGSPRGQHEPSKPPPAGETVTGGFGAKKRKGSSSQAPASKKLNKEELPVIPKGKPKSGRVWKDRSKKRFSQMLQDKPLRTSWQRKMKERQERKLAKDFARHLEEEKERRRQEKKQRRAENLKRRLENERKAEVVQVIRNPAKLKRAKKKQLRSIEKRDTLALLQKQPPQQPAAKI [CCDC86]”, for which the melting temperature came out at 57.2 °C in the series with HeLa Kyoto [1] (cell cycle stage: G1/S) and 54.1 °C with HeLa Kyoto [1] (cell cycle stage: mitosis). The “solubility change mitosis (log2)” value with HeLa Kyoto [2] worked out at 0.956. Moreover, the values for the thermal stability score in the series with HeLa Kyoto [3] (setting [5]) and in the series on HeLa Kyoto [3] (cell cycle stage: mitosis) were -0.356 and -4.77, respectively. Further, the “solubility in G1/S (log2)” value in the series with HeLa Kyoto [4] was -1.03.
